Consider one substance from paper PMC8234171.

Test [1] concerns the target human mitochondrial complex I (NADH-coenzyme Q oxidoreductase) (human (endogenous in T-REx-293 shRNA-C3)).
For test [2] the target is unchanged. The test can be described thus: native gel or EMSA; high-resolution clear native gel electrophoresis (HrCNE, 6.5% gel, 4 °C) of DDM-solubilised mitochondria of shRNA-C3 cells treated with 0.03 mg/mL TAT-NDUFS8 for 0-48 h; immunoblot with anti-NDUFS8 at the complex I location; intensity normalised to complex V (ATPase α subunit). A general note: Mobility shift assays separate free from complexed probe on a gel.

In test [1], “TAT-NDUFS8 fusion protein (from UniProt O00217 35-210)” came in with a complex I in-gel activity (NADH/NBT staining after HrCNE) of shRNA-C3 cells treated with 0.03 mg/mL TAT-NDUFS8 for 48 h; untreated shRNA-C3 cells about 83.6% of the wild type (% of the wild-type activity) of 109. Further, the intensity of NDUFS8 at the complex I location after 48 h of treatment in test [2] came to 105%.
